Assay results published in patent US20210115151A1 (TOHOKU UNIVERSITY, published 2021).

Tests used:
human podoplanin E81A = target: T1, human podoplanin E81A (human, UniProt Q86YL7 23-162); assay: flow cytometry, alanine scan 77-89
T1 construct: Alanine point mutant tested by flow cytometry
T1 chain: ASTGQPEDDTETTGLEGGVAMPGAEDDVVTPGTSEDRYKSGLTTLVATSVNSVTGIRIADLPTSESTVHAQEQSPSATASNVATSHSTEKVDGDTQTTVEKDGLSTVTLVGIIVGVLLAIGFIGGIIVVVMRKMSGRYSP

human podoplanin I80A = target: T2, human podoplanin I80A (human, UniProt Q86YL7 23-162); assay: flow cytometry, alanine scan 77-89
T2 construct: Alanine point mutant tested by flow cytometry
T2 chain: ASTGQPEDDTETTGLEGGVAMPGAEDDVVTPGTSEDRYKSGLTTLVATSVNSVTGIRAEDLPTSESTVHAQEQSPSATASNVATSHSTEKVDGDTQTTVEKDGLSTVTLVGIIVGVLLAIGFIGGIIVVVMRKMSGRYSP

human podoplanin D82A = target: T3, human podoplanin D82A (human, UniProt Q86YL7 23-162); assay: flow cytometry, alanine scan 77-89
T3 construct: Alanine point mutant tested by flow cytometry
T3 chain: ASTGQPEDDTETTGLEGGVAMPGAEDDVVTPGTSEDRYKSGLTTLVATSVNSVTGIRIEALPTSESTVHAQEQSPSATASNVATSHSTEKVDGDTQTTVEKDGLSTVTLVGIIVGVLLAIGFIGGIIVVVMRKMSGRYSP

human podoplanin T85A = target: T4, human podoplanin T85A (human, UniProt Q86YL7 23-162); assay: flow cytometry, alanine scan 77-89
T4 chain: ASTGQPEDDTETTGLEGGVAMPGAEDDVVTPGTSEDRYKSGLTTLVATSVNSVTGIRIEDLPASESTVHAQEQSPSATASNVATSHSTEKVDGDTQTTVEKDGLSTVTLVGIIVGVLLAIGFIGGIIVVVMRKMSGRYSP

human podoplanin I78A = target: T5, human podoplanin I78A (human, UniProt Q86YL7 23-162); assay: flow cytometry, alanine scan 77-89
T5 construct: Alanine point mutant tested by flow cytometry
T5 chain: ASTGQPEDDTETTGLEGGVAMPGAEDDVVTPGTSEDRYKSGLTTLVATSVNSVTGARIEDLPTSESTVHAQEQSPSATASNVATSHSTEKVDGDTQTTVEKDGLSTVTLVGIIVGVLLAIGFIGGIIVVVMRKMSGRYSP

[1] = target: T6, human podoplanin on cancer cells (glioblastoma LN319, lung cancer PC-10) (human, UniProt Q86YL7 23-162, sialylated O-glycan on Thr85 (as the filing concludes for podoplanin on cancer cells)); assay: flow cytometry, ExpiCHO culture supernatant on LN319 cells
T6 construct: Endogenous podoplanin on cancer cell lines LN319 and PC-10; also called hPDPN; cancer-type podoplanin
T6 chain: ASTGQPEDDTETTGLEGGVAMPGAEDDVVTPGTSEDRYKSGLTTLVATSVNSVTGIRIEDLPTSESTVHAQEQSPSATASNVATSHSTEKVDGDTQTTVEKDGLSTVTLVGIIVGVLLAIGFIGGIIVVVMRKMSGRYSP
Method: Plasmids of the H chain and the L chain of chPMab117-mG2a were introduced into ExpiCHO cell lines (product of Thermo Fisher) by lipofection and a recombinant antibody of chPMab117-mG2a was expressed in the culture supernatant. The culture supernatant was collected two days after gene introduction. It was reacted with LN 319 cells at 4° C. for 30 minutes and was then reacted further with an anti-mouse IgG-FITC antibody (product of Thermo Fisher) at 4° C. for 30 minutes. As a negative control, only a secondary antibody was used.

B1: human chimeric PMab-117 (chPMab-117) (antibody, human IgG1)
heavy: not shown
light: DVVLTQTPVAQPVTLGDQASISCRSSQSLVHSNGNTYLEWYLQKPGQSPQLLIYKVSNRFSGVPDRFIGSGSGSDFTLKISRVEPEDLGVYYCFQVTHDPFTFGSGTKLEIKRGSAAPSVFIFPPSDEQLKSGTASVVCLLNNFYPREAKVQWKVDNALQSGNSQESVTEQDSKDSTYSLSSTLTLSKADYEKHKVYACEVTHQGLSSPVTKSFNRGEC
Q: Does B1 bind (human podoplanin E81A)?
A: no binding (tested: 10 µg/mL)

Q: Does B1 bind (human podoplanin I80A)?
A: no binding (tested: 10 µg/mL)

Q: Does B1 bind (human podoplanin D82A)?
A: no binding (tested: 10 µg/mL)

Q: Does B1 bind (human podoplanin T85A)?
A: no binding (tested: 10 µg/mL)

Q: Does B1 bind (human podoplanin I78A)?
A: no binding (tested: 10 µg/mL)

B2: mouse chimeric PMab-117 (chPMab117-mG2a) (antibody, mouse IgG2a, kappa)
heavy: AVQLVESGGGLVQPKESLKISCAASGFTFSNAAMYWVRQAPGKGLEWVARIRSKPNNYATYYTDSVKGRFTISRDDSKSMVHLQMDNLKTEDTAMYYCTVGGNNYAAAYWGQGTLVTVSSAKTTAPSVYPLAPVCGDTTGSSVTLGCLVKGYFPEPVTLTWNSGSLSSGVHTFPAVLQSDLYTLSSSVTVTSSTWPSQSITCNVAHPASSTKVDKKIEPRGPTIKPCPPCKCPAPNLLGGPSVFIFPPKIKDVLMISLSPIVTCVVVDVSEDDPDVQISWFVNNVEVHTAQTQTHREDYNSTLRVVSALPIQHQDWMSGKEFKCKVNNKDLPAPIERTISKPKGSVRAPQVYVLPPPEEEMTKKQVTLTCMVTDFMPEDIYVEWTNNGKTELNYKNTEPVLDSDGSYFMYSKLRVEKKNWVERNSYSCSVVHEGLHNHHTTKSFSRTPGK
light: DVVLTQTPVAQPVTLGDQASISCRSSQSLVHSNGNTYLEWYLQKPGQSPQLLIYKVSNRFSGVPDRFIGSGSGSDFTLKISRVEPEDLGVYYCFQVTHDPFTFGSGTKLEIKRADAAPTVSIFPPSTEQLATGGASVVCLMNNFYPRDISVKWKIDGTERRDGVLDSVTDQDSKDSTYSMSSTLSLTKADYESHNLYTCEVVHKTSSSPVVKSFNRNEC
notes: tested as ExpiCHO culture supernatant; no limits stated
Q: Does B2 bind [1]?
A: binds
